According to patent US20220143185A1, “ORALLY ACTIVE SMALL MOLECULE INHIBITOR OF PAI-1” (Northwestern University, priority 2019, published 2022):

Tests used:
[1] = molecular target: T1, PCSK9 (Homo sapiens, UniProt Q8NBP7); test: Plasma PCSK9 and PAI-1 levels in hypercholesterolemic patients treated with PCSK9 monoclonal antibodies; format: in vivo; set-up: from tissue; host or cells: plasma of hypercholesterolemic patients; conditions: before vs during treatment; for plasma PAI-1 levels: n=28, p=0.0029
Procedure: Plasma samples from hypercholesterolemic patients were obtained from the OHSU Center for Preventive Cardiology Registry and Biorepository, approved by OHSU Institutional Review Board (17329).
Total cholesterol was quantified in the murine plasma using an enzymatic determination (Pointe Scientific, Cat #C7510). The lipoprotein profile of the murine plasma samples was assessed running a fast-phase liquid chromatography (FPLC), in brief 100 μL of plasma (from one animal or a pool of several samples of the same conditions) were loaded to a Superose 6 column (GE HealthCare, Cat #29-0915-96) at a flow rate of 0.5 mL/min in running buffer (0.15M NaCl, 0.01M Na2HPO4 and 1 mM EDTA). Fractions were collected every minute for 41 minutes and analyzed for cholesterol concentrations as described above. Murine plasma PCSK9 levels were determined using an ELISA kit (MBL International, Cat #CY-80781). Murine PAI-1 levels were quantified using an ELISA kit (Molecular Innovations, Cat #MPAIKT-TOT). Murine PAI-1 activity levels were quantified by ELISA (Molecular Innovations, Cat #MPAIKT). Human PAI-1 levels were quantified by ELISA (Molecular Innovations, Cat #HPAIKT-TOT).
PAI-1 and PCSK9 levels were also quantified in plasma samples obtained from a human cohort with and without heart failure with preserved ejection fraction (HFpEF). There was again a positive correlation between PAI-1 and PCSK9 levels in these patients, similar to that in mice and in the Amish kindred (FIG. 19D, p<0.0001; R=0.351).

[2] = molecular target: T1, PCSK9

alirocumab
total plasma PCSK9 levels [1]: large increase | plasma PAI-1 levels [1]: significant reduction

recombinant human low molecular weight urokinase
proteolytic degradation of PCSK9 in vitro (Western blot for PCSK9, silver stain) [2]: efficiently promoted the proteolytic degradation of recombinant human PCSK9

B1: evolocumab (antibody, chains of the INN, looked up, V domains shown)
VH: EVQLVQSGAEVKKPGASVKVSCKASGYTLTSYGISWVRQAPGQGLEWMGWVSFYNGNTNYAQKLQGRGTMTTDPSTSTAYMELRSLRSDDTAVYYCARGYGMDVWGQGTTVTVSS
VL: ESALTQPASVSGSPGQSITISCTGTSSDVGGYNSVSWYQQHPGKAPKLMIYEVSNRPSGVSNRFSGSKSGNTASLTISGLQAEDEADYYCNSYTSTSMVFGGGTKLTVL
total plasma PCSK9 levels [1]: large increase | plasma PAI-1 levels [1]: significant reduction
